Measurements: US20150098900A1 (Genentech, published 2015)

How the values were obtained:
[1] = target: T1, human FcRH2 with N-terminal gD-expression tag on SVT2 cells (human, UniProt Q96LA5 20-508); assay: FACS, SVT2 cells with gD-tagged FcRH2, subclone supernatants, anti-mouse PE
T1 construct: whole, on cells; also called SVT2/FcRH2
T1 sequence (looked up): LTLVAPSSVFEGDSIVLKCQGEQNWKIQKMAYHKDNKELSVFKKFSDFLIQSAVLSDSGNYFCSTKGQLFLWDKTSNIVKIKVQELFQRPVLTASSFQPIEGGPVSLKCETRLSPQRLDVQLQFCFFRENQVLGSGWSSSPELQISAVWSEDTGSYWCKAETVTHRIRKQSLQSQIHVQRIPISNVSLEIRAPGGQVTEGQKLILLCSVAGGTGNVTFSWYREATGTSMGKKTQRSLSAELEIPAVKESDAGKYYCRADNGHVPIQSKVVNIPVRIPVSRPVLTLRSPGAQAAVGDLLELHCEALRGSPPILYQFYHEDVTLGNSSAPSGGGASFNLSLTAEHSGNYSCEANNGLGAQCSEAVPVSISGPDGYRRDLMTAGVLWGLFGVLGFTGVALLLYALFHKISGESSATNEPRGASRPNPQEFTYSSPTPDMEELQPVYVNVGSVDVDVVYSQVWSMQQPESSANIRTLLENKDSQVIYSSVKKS
Excerpt: Fc receptor homolog (FcRH) family molecules have a high degree of homology to one another (Miller et al., 2002). The homology is especially high between the membrane proximal domains, which the E11 antibodies target (Miller et al., 2002). To investigate the cross reactivity to family members, FcRH1, FcRH2, FcRH3 and FcRH4 (all including an N-terminal gD-expression tag) were expressed in SVT2 cells and cells were stained with subclone supernatants and goat anti-mouse-PE secondary antibody. Expression of the transfected FcRH was confirmed by a signal from anti-gD antibody in all cell lines. […] Overall, the signals from FcRH3-expressing SVT2 cells were low, including the gD control antibody, indicative of low expression level. Low level of binding to FcRH3-expressing SVT2 cells was detected for 1F4 and 4H8 supernatants (FIG. 6C).

[2] = target: T2, human FcRH5c (full length human FcRH5) (human, UniProt Q96RD9 16-977); assay: FACS, APC-labelled antibodies on SVT2 cells with full-length human FcRH5
T2 construct: Used on transfected SVT2, 293, EJM and OPM2 cells and endogenously on MOLP-2 cells and CD19+ B cells; also called IRTA2c; huFcRH5
T2 sequence: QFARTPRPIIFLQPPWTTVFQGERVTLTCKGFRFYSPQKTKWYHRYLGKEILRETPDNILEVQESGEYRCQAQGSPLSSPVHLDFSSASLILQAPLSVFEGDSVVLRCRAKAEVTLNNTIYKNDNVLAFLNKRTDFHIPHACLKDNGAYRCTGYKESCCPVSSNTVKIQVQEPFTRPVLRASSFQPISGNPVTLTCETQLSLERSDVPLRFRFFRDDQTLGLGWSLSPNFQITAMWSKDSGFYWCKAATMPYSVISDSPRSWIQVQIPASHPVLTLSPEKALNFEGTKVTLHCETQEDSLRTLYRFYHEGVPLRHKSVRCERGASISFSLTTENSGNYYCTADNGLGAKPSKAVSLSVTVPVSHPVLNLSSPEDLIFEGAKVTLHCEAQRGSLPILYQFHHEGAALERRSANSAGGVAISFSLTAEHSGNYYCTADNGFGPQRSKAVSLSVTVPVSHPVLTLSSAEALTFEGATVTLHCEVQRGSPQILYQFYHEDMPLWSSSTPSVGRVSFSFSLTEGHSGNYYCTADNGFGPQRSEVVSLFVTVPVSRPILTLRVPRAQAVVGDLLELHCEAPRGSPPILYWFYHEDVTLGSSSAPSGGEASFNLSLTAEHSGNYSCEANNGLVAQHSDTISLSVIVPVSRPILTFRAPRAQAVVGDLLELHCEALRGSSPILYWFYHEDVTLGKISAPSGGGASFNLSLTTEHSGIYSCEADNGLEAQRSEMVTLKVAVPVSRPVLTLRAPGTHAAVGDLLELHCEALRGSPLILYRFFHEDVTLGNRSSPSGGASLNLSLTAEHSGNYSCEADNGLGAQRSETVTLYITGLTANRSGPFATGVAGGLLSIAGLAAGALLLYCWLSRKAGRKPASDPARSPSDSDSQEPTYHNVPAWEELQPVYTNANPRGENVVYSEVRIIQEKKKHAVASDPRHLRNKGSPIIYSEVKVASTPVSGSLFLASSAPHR

B1: 3B12.1.1 (antibody, IgG2b, V domains shown)
VH: EVQLQQSGPELVKPGASVKISCKTSGYTFTEYTIHWVKQSHGKSLERIGGINPNNDAVSYNQRFRGKATLTVDKSSSTAYMELRSLTSEDSAVYYCAKLGRGYYFDYWGQGTTLTVSSASTKGPSVFPLAP
VL: DIQMTQSPASLSASVGETVTITCRASENIYSNLAWYQLKQGKSPQLLVYGAANLAEGVPSRISGSGSGTQYSLKINSLQSEDFGTYYCQHFWGIPWTFGGGTKLEIKRTVAA
notes: parent 3B12 and subclone 3B12.1 treated as the same antibody; also called 3B12.1.mIgG2b
Question: Which results are given for B1?
Answer: binding result [1]: no binding; binding result [2]: binds
